This is an account of results in doi:10.1101/2023.04.12.536585, “Allosteric activation or inhibition of PI3Kγ mediated through conformational changes in the p110γ helical domain” (bioRxiv, 2023).

Common to all, as to test: BLI; His-tagged NB7 (500 nM) immobilised on Anti-Penta-His biosensor, dipped into PI3K in solution; dose response 50-1.9 nM for p110γ, p110γ-p84, p110γ-p101; 50 nM for the class IA comparison; 25 nM for phosphorylated and non-phosphorylated p110γ; Octet buffer 20 mM Tris pH 8.5, 100 mM NaCl, 50 mM ammonium sulfate, 0.1% BSA, 0.02% Tween 20; global fit to a 1:1 model
Holding throughout (details): both partners purified

Test [1] addresses T1, p110γ-p84 complex (human p110γ, mouse p84) (Homo sapiens p110γ; Mus musculus p84, UniProt P48736;Q3U6Q4).
T1 construct: p110γ catalytic subunit, human; plasmid pMultiBac-hsp110γ-mmp84 (MR24); p84 regulatory subunit of PI3Kγ, Mus musculus; The tag stood on p84 for purification and was cleaved by TEV on the column; also called p110/p84; not shown: 10xHis, N-terminal, cleaved; 2xStrep, N-terminal, cleaved

The target of test [2] is T2, p110γ-p101 complex (human p110γ, porcine p101) (Homo sapiens p110γ; Sus scrofa p101, UniProt P48736;O02696).
T2 construct: p110γ catalytic subunit, human; plasmid pMultiBac-hsp110γ-ssp101 (MR22); full length p110γ in the p110γ-p101 model PDB 7MEZ; p101 regulatory subunit of PI3Kγ, Sus scrofa; The tag stood on p101 for purification and was cleaved by TEV on the column; also called p110/p101; not shown: 10xHis, N-terminal, cleaved; 2xStrep, N-terminal, cleaved

The target of a further test is T3, p110α-p85α complex (Homo sapiens (assumed), UniProt P42336;P27986).
T3 construct: p110α class IA PI3K catalytic subunit; plasmid pFASTBac p110α (pOV1181); p85α class IA regulatory subunit; Plasmids as described in Dornan et al., 2017 and Siempelkamp et al., 2017; also called PI3Kα; source: PI3Kα gel filtration buffer

The target in another test is T4, p110β-p85β complex (Homo sapiens (assumed), UniProt P42338;O00459).
T4 construct: p110β class IA PI3K catalytic subunit; plasmid pFASTBac p110β (pOV1182); p85β class IA regulatory subunit; also called PI3Kβ; source: PI3Kα gel filtration buffer

Another test deals with T5, p110δ-p85β complex (Homo sapiens (assumed), UniProt O00329;O00459).
T5 construct: p110δ class IA PI3K catalytic subunit; plasmid pFASTBac p110δ (pOV1183); p85β class IA regulatory subunit; also called PI3Kδ; source: PI3Kα gel filtration buffer
T5 sequence (O00329 whole entry, stated change not applied, chain 1 of 2): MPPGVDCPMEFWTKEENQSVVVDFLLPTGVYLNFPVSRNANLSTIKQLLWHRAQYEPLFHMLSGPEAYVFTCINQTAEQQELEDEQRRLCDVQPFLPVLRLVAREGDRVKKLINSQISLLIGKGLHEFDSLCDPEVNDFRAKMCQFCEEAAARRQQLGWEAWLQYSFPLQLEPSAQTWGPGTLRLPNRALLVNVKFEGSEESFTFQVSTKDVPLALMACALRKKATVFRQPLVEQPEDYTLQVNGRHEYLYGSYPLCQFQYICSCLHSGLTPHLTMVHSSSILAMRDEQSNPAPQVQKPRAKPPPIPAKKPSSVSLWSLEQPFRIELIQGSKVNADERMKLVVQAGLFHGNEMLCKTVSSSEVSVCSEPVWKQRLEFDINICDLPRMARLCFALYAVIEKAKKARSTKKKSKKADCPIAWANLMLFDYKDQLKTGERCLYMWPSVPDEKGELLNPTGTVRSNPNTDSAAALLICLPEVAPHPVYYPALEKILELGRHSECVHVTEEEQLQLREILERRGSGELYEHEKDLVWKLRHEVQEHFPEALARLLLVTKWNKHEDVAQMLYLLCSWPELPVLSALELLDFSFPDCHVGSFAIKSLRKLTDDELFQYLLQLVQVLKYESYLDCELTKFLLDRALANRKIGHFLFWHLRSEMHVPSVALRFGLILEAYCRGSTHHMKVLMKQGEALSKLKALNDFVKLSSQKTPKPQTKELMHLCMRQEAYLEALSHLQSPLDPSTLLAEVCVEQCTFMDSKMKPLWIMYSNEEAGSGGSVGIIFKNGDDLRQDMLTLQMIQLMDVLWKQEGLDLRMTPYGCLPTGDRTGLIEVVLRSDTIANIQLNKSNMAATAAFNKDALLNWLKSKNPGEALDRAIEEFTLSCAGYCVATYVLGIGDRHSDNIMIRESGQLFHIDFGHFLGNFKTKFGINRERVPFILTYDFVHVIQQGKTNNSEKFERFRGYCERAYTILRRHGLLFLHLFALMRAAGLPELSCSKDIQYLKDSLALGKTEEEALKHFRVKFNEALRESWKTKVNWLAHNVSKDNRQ
T5 sequence (O00459 whole entry, stated change not applied, chain 2 of 2): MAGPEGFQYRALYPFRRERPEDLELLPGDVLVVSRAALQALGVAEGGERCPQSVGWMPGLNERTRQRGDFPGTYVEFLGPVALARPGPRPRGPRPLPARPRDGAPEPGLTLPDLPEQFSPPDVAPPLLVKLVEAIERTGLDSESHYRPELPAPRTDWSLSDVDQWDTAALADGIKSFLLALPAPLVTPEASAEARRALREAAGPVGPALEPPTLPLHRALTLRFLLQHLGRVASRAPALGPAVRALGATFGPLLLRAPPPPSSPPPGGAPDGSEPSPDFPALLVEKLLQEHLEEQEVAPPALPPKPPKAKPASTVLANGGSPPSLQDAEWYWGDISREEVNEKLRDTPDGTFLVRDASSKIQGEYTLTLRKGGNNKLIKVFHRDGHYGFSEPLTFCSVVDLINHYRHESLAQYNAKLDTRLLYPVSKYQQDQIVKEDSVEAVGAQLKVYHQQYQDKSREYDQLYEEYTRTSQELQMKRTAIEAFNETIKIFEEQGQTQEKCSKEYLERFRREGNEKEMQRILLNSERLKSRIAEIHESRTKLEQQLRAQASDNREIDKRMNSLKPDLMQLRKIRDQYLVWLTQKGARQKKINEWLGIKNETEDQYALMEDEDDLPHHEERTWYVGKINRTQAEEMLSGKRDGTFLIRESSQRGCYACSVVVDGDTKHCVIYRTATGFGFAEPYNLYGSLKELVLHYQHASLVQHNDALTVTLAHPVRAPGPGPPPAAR

T1 sequence (P48736 whole entry, chain 1 of 2): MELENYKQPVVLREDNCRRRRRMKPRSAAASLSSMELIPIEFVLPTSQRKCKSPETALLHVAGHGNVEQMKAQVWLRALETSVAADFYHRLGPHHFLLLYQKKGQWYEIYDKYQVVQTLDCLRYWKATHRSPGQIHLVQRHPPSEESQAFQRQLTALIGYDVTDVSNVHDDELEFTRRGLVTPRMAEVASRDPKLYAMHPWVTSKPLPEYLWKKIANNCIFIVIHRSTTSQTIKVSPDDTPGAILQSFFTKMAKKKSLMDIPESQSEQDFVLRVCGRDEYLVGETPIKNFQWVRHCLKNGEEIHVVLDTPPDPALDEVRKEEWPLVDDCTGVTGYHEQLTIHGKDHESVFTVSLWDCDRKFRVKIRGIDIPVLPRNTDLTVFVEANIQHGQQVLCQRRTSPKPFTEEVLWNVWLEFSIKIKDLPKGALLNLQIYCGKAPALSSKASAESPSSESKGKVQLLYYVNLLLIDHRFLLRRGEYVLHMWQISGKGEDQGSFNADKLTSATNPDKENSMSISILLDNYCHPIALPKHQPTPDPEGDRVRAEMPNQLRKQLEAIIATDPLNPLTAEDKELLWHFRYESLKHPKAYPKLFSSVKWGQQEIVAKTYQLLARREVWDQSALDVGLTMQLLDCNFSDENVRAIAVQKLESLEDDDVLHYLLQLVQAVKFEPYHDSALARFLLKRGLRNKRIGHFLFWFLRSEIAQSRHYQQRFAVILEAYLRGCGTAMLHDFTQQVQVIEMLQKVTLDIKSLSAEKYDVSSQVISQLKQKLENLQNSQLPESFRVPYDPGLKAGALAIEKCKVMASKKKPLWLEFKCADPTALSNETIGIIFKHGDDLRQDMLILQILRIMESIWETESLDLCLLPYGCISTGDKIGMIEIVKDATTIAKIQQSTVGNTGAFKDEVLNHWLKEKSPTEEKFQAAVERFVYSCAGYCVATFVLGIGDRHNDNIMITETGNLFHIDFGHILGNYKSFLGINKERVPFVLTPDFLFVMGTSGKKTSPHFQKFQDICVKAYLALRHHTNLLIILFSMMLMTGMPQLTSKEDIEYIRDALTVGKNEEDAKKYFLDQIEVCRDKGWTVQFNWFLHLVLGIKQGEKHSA
T1 sequence (Q3U6Q4 whole entry, chain 2 of 2): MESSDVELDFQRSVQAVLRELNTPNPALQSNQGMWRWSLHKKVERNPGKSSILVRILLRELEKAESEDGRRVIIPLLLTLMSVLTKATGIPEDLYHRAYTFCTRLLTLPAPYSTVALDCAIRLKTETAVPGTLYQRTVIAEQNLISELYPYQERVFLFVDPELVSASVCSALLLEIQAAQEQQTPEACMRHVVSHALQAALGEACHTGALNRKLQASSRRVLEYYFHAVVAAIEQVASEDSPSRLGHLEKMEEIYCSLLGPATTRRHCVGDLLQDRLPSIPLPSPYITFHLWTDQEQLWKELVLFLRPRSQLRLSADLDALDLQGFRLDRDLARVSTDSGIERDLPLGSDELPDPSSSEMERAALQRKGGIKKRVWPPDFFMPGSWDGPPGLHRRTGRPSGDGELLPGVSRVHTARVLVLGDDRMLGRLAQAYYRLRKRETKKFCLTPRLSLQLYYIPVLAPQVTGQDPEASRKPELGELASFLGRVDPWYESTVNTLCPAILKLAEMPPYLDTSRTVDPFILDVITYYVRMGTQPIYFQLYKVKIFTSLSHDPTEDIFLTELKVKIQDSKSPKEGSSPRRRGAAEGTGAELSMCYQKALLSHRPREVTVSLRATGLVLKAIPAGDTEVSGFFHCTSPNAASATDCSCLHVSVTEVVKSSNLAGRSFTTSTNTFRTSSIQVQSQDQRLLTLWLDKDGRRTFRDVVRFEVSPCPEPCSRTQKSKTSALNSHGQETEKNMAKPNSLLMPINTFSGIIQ
T2 sequence (P48736 whole entry, chain 1 of 2): as the sequence (P48736 whole entry, chain 1 of 2) above
T2 sequence (O02696 whole entry, chain 2 of 2): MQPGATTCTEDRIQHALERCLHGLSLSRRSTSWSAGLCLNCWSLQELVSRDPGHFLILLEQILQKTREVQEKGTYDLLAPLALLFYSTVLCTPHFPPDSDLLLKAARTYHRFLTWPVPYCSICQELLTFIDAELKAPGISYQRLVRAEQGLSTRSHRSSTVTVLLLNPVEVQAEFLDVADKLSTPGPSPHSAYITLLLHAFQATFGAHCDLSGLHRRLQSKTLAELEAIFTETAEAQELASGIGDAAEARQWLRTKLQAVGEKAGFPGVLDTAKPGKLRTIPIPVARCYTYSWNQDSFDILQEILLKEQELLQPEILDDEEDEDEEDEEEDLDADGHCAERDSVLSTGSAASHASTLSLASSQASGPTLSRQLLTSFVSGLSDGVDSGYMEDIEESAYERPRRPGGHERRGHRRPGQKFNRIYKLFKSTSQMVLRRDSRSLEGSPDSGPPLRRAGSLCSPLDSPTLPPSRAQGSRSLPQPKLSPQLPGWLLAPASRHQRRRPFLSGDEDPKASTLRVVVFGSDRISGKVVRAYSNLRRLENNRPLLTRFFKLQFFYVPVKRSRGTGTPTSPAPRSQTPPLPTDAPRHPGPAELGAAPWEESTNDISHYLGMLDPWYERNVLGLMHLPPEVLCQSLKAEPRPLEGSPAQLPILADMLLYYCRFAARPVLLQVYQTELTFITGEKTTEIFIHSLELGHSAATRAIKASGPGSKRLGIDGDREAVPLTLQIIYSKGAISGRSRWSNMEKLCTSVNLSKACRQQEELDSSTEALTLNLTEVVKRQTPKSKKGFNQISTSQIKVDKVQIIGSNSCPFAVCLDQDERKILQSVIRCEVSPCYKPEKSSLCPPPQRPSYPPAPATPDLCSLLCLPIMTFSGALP

B1: Nanobody NB7-PIK3CG (VHH)
VHH: QVQLVESGGGLVQPGGSLRLSCAASGSIFSINAMGWYRQAPGKQRELVAHITSGGSTNYADSVKGRFTISRDNAKNTVYLQMNSLKPEDTAVYYCNEAGDPFLGSTWNGPPAFGSWGQGTQVTVSS
notes: Identified earlier (Rathinaswamy et al., 2021b); also called His-NB7; nanobody 7; source: E. coli WK6 periplasm (pMESy4 vector), purified (Ni-NTA, SEC); not shown: His6, C-terminal, kept
On to B1, for which the Kd in test [1] and in test [2] was around 2 nM in each case. In addition, the binding result with p110α-p85α complex, with p110β-p85β complex and with p110δ-p85β complex was “no binding (tested: 50 nM)” throughout.
